Results on 15 molecules are retold here after patent US9631002B2, “Methods and compositions for producing active vitamin K-dependent proteins” (The University of North Carolina at Chapel Hill, priority 2010, dated 2017).

Residue numbers refer to the chain shown, from its start. In names and notes the source's numbering stands. Entries after “also recorded” stand apart in the source; their conditions may differ.

This data set relates to carboxylation of FIXgla-PC reporter protein in HEK293 cells (reduction of KO to vitamin K). As to the kind of experiment: Cell-based VKOR activity assay: recombinant VKOR/VKORH expressed in FIXgla-PC/HEK293 cells with KO and warfarin, carboxylated reporter by ELISA. Details: species or system human. The following applies: for ability to promote carboxylation of the reporter protein compared to recombinant human VKOR: FIXgla-PC HEK293 (FIGS. 9, 10); for sensitivity to warfarin: warfarin level used in these assays; for Relative activity: Human Y139F: VKOR of the organism compared to human Y139F VKOR, cell-based carboxylation; for ability of human VKOR with replaced residues 122-139 to use KO to carboxylate the reporter: 48 h, HEK293 (FIG. 11C); for activity in the in vivo assay: cysteine mutants of VKOR-Y139F, 4 μM warfarin (FIGS. 17A-B); for carboxylation of reporter protein by human VKOR cysteine mutants: Y139F background, HEK293 (FIG. 13); for amount of carboxylated reporter protein with mutated recombinant human VKOR: FIG. 12, compared to human VKOR Y139F. For orientation: In an ELISA, binding on a coated surface is turned into a signal by an enzyme label.

With “VKOR: human vitamin K epoxide reductase, AAS01052, SEQ ID NO:5”, the “activity in cell-based in vivo activity assays” value is given as “active in the vitamin K cycle”.

B1: MT-VKORH: Mycobacterium tuberculosis VKOR homologue, NP_217484, SEQ ID NO:18 (protein, listed as Mycobacterium tuberculosis)
chain: MVAARPAERSGDPAAVRVPVPSAWWVLIGGVIGLFASMTLTVEKVRILLDPIYVPSCNVNPIVSCGSVMTTPQASLLGFPNPLLGIAGFTVVVVTGVLAVAKVPLPRWYWIGLAVGILVGVAFVHWLIFQSLYRIGALCPYCMVVWAVIATLLVVVASIVFGPMRENRGSQERVGARLLYQWRWSLATLWFTTVFLLIMVRFWDYSTLI
In the case of B1, the sensitivity to warfarin entry is “naturally resistant to warfarin”. Further, where the note is “5 μM KO, 2 μM warfarin”, the “ability to promote carboxylation of the reporter protein compared to recombinant human VKOR” value (from here on “ability … compared to recombinant human VKOR”) is “greater activity”. Also, the “support of carboxylation of the reporter protein with KO as substrate” value (5 μM KO, 4 μM warfarin, 48 h (FIG. 15B)) is “supported carboxylation of the reporter protein”. Further, the sensitivity to warfarin result (listed as VKOR from Mycobacterium tuberculosis) is listed as “resistant to warfarin at the doses employed”.

B2: VKORC1L1: the VKOR paralogue, four TMDs (protein, UniProt Q8N0U8 1-176, looked up)
Vitamin K epoxide reductase …: MAAPVLLRVSVPRWERVARYAVCAAGILLSIYAYHVEREKERDPEHRALCDLGPWVKCSAALASRWGRGFGLLGSIFGKDGVLNQPNSVFGLIFYILQLLLGMTASAVAALILMTSSIMSVVGSLYLAYILYFVLKEFCIICIVTYVLNFLLLIINYKRLVYLNEAWKRQLQPKQD
Turning to B2, the “activity in cell-based in vivo activity assays” value is recorded as “active in the vitamin K cycle”.

B3: Nematostella: VKOR from Nematostella rendered warfarin resistant by Y135F mutation, SEQ ID NO:10 (protein, listed as Nematostella vectensis)
chain: MDKLGGFRMMLCVAGVFLSAYALNVEVSKSNNKDYRAICDISEKISCSKVFSSKYGTGFGLVEPIFGKDSTLNVPNSIFGIMFYTMVFLLGFSRSKLAAQLSVFSAVLSCLGSVYLGCILYFVLQDVCIICISTYVVNACLLVVNSLSLVNLQERTKRKQK
In the case of B3, the “Relative activity: Human Y139F” value was “Yes, greater”. The “ability … compared to recombinant human VKOR” value (5 μM KO, 2 μM warfarin) is reported as “consistently better; also recorded: considerably more active”. Further, the “ability … compared to recombinant human VKOR” value (5 μM KO, 2 μM warfarin, listed as Nematostella Y135F) is on record as “greater ability to stimulate carboxylation”.

B4: hVKOR Roseiflexus: human VKOR with residues 122-139 replaced by Roseiflexus VKOR 300-317, SEQ ID NO:33 (protein)
chain: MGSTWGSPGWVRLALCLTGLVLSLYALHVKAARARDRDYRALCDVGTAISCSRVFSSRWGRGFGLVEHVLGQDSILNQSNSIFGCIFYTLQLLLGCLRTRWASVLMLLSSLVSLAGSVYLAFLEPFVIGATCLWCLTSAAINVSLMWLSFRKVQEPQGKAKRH
modifications: Human VKOR with amino acids 122-139 substituted with amino acids 300-317 of Roseiflexus sp. RS-1 VKOR (RefSeq accession no. YP_001274867)
Regarding B4, the “ability of human VKOR with replaced residues 122-139 to use KO to carboxylate the reporter” value (5 μM KO, 2 μM warfarin) is recorded as “only the human VKOR substituted with the M. tuberculosis domain functions as a VKOR”.

B5: C43-51-DEL: VKOR-Y139F with deletion of C43, C51 and the residues between them (protein, UniProt Q9BQB6 1-163, looked up, variant Y139F del43-51)
Vitamin K epoxide reductase …: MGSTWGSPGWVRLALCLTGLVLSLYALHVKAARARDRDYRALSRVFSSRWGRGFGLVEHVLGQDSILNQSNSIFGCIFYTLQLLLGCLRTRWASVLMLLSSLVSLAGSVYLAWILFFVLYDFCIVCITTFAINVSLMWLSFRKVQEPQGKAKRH
On to B5, for which the “activity in the in vivo assay” value (5 μM KO) is roughly 60%.

B6: Hamster: Syrian golden hamster (AV12) VKOR, SEQ ID NO:3, Y139F warfarin resistant (protein, listed as Cricetulus griseus)
chain: MGTTWRSPGRWRLALCLAGLALSLYALHVKAARARDEDYRALCDVGSAISCSRVFSSRWGKGLGLVEHVLGPDSVLNQNSIFGCIFYTIQLLLGCLRGRWAFLLLVLSSLVSFAGSVYLAWILFFVLYDFCIVCITTYVINVGLMLLNFQDVPEHKAKRH
Regarding B6, the “Relative activity: Human Y139F” value is “Yes, greater”. Also, the “ability … compared to recombinant human VKOR” value (5 μM KO, 2 μM warfarin) is “undiminished ability”.

B7: Acropora: Acropora VKOR (translation of EZ012735, SEQ ID NO:9), Y136F warfarin resistant (protein, listed as Acropora millepora)
chain: MVSFLGISRLLVCLAGIALSIYALHVELSKAHDKDYKALCDINEHMSCSKVFTSKYGTGFGLVEPLLGKNHPFNVPNSIFGIIFYSLIIILGVVSGKFAALMMFLFSLASCVGSVYLGYILFYILHDTCVVCISTYVVNACLFVINMITLNDALSAPSPKKKKN
Turning to B7, the “Relative activity: Human Y139F” value is on record as “Yes, greater”. Moreover, the “ability … compared to recombinant human VKOR” value (5 μM KO, 2 μM warfarin) is “also promotes carboxylation of the reporter protein”.

B8: Platypus: duck-billed platypus VKOR, SEQ ID NO:16, lacks cysteines corresponding to 43 and 51 (protein, listed as Ornithorhynchus anatinus)
chain: MGAWVPTRSARVVGPRALGSRVATAVQPSAVDPDTRHDRIPSLRWGRGFGLVEMVLGPDSSLNQPNSVFGLLFYSLQLLLGCSRAPWTSVVLALSSLLSLAGSLYLAWILFFVLHDFCFVCITTYAINVGLALLNYRRLKQAQGKVMKYCDESSPASSLLERRFYSGGGLRNGGSAASFPFPPATGH
As for B8, the “Relative activity: Human Y139F” value is “No”. Further, the “ability … compared to recombinant human VKOR” value (5 μM KO, 2 μM warfarin) was “inactive”.

B9: C51A/Y139F: human VKOR with C51A and Y139F mutations (protein)
chain: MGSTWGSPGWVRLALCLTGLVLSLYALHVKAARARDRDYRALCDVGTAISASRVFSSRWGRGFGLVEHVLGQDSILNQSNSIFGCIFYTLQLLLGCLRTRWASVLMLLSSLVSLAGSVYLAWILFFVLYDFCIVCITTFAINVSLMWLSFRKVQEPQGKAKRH
modifications: Human VKOR with C51A mutation
notes: human VKOR with C51A and Y139F mutations
For B9, the “ability … compared to recombinant human VKOR” value (5 μM KO, 2 μM warfarin) is “greater activity”. The “carboxylation of reporter protein by human VKOR cysteine mutants” value (shortened to “carboxylation of reporter protein”) (4 μM warfarin) was “greater activity than VKORY139F”. Further, the “activity relative to human VKOR (Y139F)” value (both human forms carry Y139F, 5 μM KO, 2 μM warfarin) is recorded as “about 2 fold”.

B10: Y139W: human VKOR with tyrosine 139 mutated to tryptophan (protein, UniProt Q9BQB6 1-163, looked up, variant Y139W)
Vitamin K epoxide reductase …: B9 chain with A51C, F139W
Take B10: the “amount of carboxylated reporter protein with mutated recombinant human VKOR” value was “further reduction”.

B11: C43/51A: VKOR-Y139F with double mutation C43A and C51A (protein, UniProt Q9BQB6 1-163, looked up, variant Y139F C43A C51A)
Vitamin K epoxide reductase …: B9 chain with C43A
Consider B11, for which, under “4 μM warfarin”, the “carboxylation of reporter protein” value is listed as “restores normal (VKORY139F) activity”. Besides, for the setting “5 μM KO”, the “activity in the in vivo assay” value is roughly 60%.

B12: Y139W_IV133PY: human VKOR with residue 139 changed to W and IV at 133-134 changed to PY (protein, UniProt Q9BQB6 1-163, looked up, variant Y139W I133P V134Y)
Vitamin K epoxide reductase …: B9 chain with A51C, I133P, V134Y, F139W
For the molecule B12, the “amount of carboxylated reporter protein with mutated recombinant human VKOR” value is reported as “does not restore activity”.

B13: 5C-Mut: VKOR-Y139F with C16A, C43A, C51A, C85A and C96A simultaneously (protein, UniProt Q9BQB6 1-163, looked up, variant Y139F C16A C43A C51A C85A C96A)
Vitamin K epoxide reductase …: B9 chain with C16A, C43A, C85A, C96A
As to B13, the “carboxylation of reporter protein” value (4 μM warfarin) is listed as “indistinguishable from VKORY139F”. The “activity in the in vivo assay” value (5 μM KO) is roughly 40%.

B14: hVKOR Synechococcus: human VKOR with residues 122-139 replaced by Synechococcus VKOR 120-137, SEQ ID NO:31 (protein)
chain: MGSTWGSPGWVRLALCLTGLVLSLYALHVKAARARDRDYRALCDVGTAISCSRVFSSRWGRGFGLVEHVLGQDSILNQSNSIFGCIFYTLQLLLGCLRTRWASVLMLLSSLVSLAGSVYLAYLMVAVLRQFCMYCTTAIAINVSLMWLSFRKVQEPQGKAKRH
modifications: Human VKOR with amino acids 122-139 substituted with amino acids 120-137 of Synechococcus sp. JA-2-3B′a(2-13) VKOR (RefSeq accession no. YP_478481)
For the molecule B14, under “5 μM KO, 2 μM warfarin”, the “ability of human VKOR with replaced residues 122-139 to use KO to carboxylate the reporter” value is “only the human VKOR substituted with the M. tuberculosis domain functions as a VKOR”.
